# Laboratory results reported in patent US11643670B2, “Methods of enhancing chromosomal homologous recombination” (Massachusetts Institute of Technology, priority 2018, dated 2023).
# B1: RAD51: recombinant human strand exchange protein RAD51 (Creative Biomart RAD51-134H), transcript variant 4 (protein, UniProt Q06609 2-339, looked up)
# DNA repair protein RAD51 …: AMQMQLEANADTSVEEESFGPQPISRLEQCGINANDVKKLEEAGFHTVEAVAYAPKKELINIKGISEAKADKILAEAAKLVPMGFTTATEFHQRRSEIIQITTGSKELDKLLQGGIETGSITEMFGEFRTGKTQICHTLAVTCQLPIDRGGGEGKAMYIDTEGTFRPERLLAVAERYGLSGSDVLDNVAYARAFNTDHQTQLLYQASAMMVESRYALLIVDSATALYRTDYSGRGELSARQMHLARFLRMLLRLADEFGVAVVITNQVVAQVDGAAMFAADPKKPIGGNIIAHASTTRLYLRKGRGETRICKIYDSPCLPEAEAMFAINADGVGDAKD
# Legend:
# Chd2^R1684H locus = test: Genotyping of individual blastomeres of 2-cell embryos; assay type: cell-based, mouse; settings: blastomeres collected at 24hpf, IVF strategy, co-injected with RAD51
# Method: Zygotes were prepared by IVF as described above and cultured until 24hpf in FHM at 37° C. and 5% CO2. Two-cell embryos were transferred 10 at a time into room temperature acidified Tyrode's solution. Embryos were monitored by microscopy and were transferred back to FHM once the zona pellucida was dissolved. Individual blastomeres were collected via mechanical dissociation with a glass micropipette and transferred to 4 μL nuclease-free water. Blastomeres were then lysed and processed for genotyping as previously described.
# After fertilization, the maternal and paternal pronuclei remain until the completion of S-phase, at which time the pronuclei fuse in preparation for mitosis. […] To begin to address the timing of zygotic ICHR, genotyping of individual blastomeres was performed in early 2-cell embryos generated through the IVF strategy and co-injected with RAD51. […] Because the blastomeres were collected early in the 2-cell stage, it is unlikely that all observed mosaicism resulted from editing events after the completion of mitosis. […]
# Chd2 locus = test: Chd2^R1684H knock-in by PNI/CPI with RAD51, genotyping of F0 pups; assay type: in vivo, mouse; settings: 18 F0 pups, PNI and CPI, RAD51 protein 10 ng/μL
# Method: tracrRNA, crRNAs, and ssODNs were synthesized by Integrated DNA Technologies (TABLE 1). All injection mixtures were prepared in a final volume of 50 μL according to the following methodology: Using RNase-free water, reagents, and consumables, crRNA (final concentration 0.61 μM), tracrRNA (final concentration 0.61 μM), and ultrapure Tris-HCl, pH 7.39 (final concentration 10 mM, ThermoFisher) were mixed and incubated at 95° C. for 5 minutes. The mixtures were cooled to room temperature for 10 minutes on the benchtop, and then, EnGen Cas9-NLS S. pyogenes (New England Biolabs) was added to a final concentration of 30 ng/μL. The mixtures were incubated at 37° C. for 15 minutes before adding any remaining components: ssODN (final concentration 3 ng/μL or 30 ng/μL), RAD51 (Creative Biomart, final concentration 10 ng/μL). Injection mixtures were stored on ice and briefly heated to 37° C. prior to injection. For experiments utilizing RS-1, embryos were cultured in KSOM-AA (EMD Millipore MR-121-D) with […] RS-1 (Sigma) dissolved in DMSO or DMSO (Sigma, 1:1000) for 24 hours, washed, and cultured in EmbryoMax FHM HEPES Buffered Medium (Sigma) until collection for genotyping.
# Female mice (4-5 weeks old, C57BL/6N) were superovulated by IP injection of PMS (5 IU/mouse, three days prior to microinjection) and hCG (5 IU/mouse, 47 hours after PMS injection) and then paired with males. […]
molecule,measurement,setting,value
B1,mosaicism in embryos with an ICHR event in at least one cell,Chd2^R1684H locus,4/6
same,homozygous KI efficiency,Chd2 locus,55.5%
same,overall KI efficiency (pups with ≥1 KI allele/total pups),Chd2 locus,61.1%
